In patent US20220160939A1, “SELF-ASSEMBLING PEPTIDES AS BRONCHIAL OBSTRUCTION AGENTS” (3-D MATRIX, LTD., priority 2014, published 2022):

Tests used:
[1] = Gelation kinetics of pH adjusted peptides, time sweep test with DMEM; type: physicochemical
Protocol: The effect of pH level on the properties of gelation kinetics was evaluated to identify optimized pH levels for the peptides as described herein. Fast gelation kinetics of PuraMatrix® and other peptides within body fluid may generally improve its function and response time for various clinical applications. The pH level may impart response time to begin gelation when treated with simulated body fluid including but not limited to DMEM. […] A fast response time of PuraMatrix® (SEQ ID NO:1) and other peptides within body fluid may generally improve its function and response time for various clinical applications.
Time sweep tests were performed at 1 rad/sec and at 1 Pa with 20 mm plates and 500 μm gap distance. During time sweep test of PuraMatrix® (SEQ ID NO:1) 2.5% solution, DMEM was added into the chamber surrounding the measuring plates to soak PuraMatrix® (SEQ ID NO:1) solution at 0 time point. The results are shown in FIG. 9A for PuraMatrix® (SEQ ID NO:1) 2.5% solution.
Time sweep tests were performed at 1 rad/sec and at 1 Pa with 20 mm plates and 500 μm gap distance. During time sweep test of IEIK13 (SEQ ID NO:2) 1.5% solution, DMEM was added into the chamber surrounding the measuring plates to soak IEIK13 (SEQ ID NO:2) 1.5% solution at 0 time point and continuously data was recorded. The results are shown in FIG. 9B for IEIK13 (SEQ ID NO:2) 1.5% solution.

[2] = Rheological measurements of RADA16 with NaCl, KCl, CaCl2 (stiffness, reversibility); type: physicochemical
Protocol: In a rheological comparison of […] (SEQ ID NO:1)+NaCl, KCl, and CaCl2), solutions of 0.5% RADA16 (SEQ ID NO:1) mixed with 0.005, 0.05, 0.125, 0.25, 0.5, and 1 M NaCl, KCl, and CaCl2) were prepared. The anion, chloride (Cl−), was kept the same to observe the effect of the cations, sodium (Na+), potassium (K+), and calcium (Ca2+). FIG. 21 provides a basic understanding of how varying the cations of a salt solution effects the viscoelastic properties and the stiffness of self-assembling peptides. […] This should be because Ca has […] higher ionic strength than Na and K at the same molar concentrations. Therefore, influence of salts on the peptide solution is more related to their ionic strength rather than their molar concentration, as shown in FIGS. 17-18 and Table 2a-c. In some embodiments, there is a correlation between the properties of the peptide solutions with salts based on the concentration of the salt.
Rheological measurements of stiffness of 2.5% RADA16 (SEQ ID NO:1) and 2.5% RADA16 (SEQ ID NO:1)+0.25 M CaCl2) was evaluated.
Rheological measurements of reversibility of 0.5% RADA16 (SEQ ID NO:1) solution with +0.125, 0.25, and 0.5 M CaCl2) were evaluated. Solutions of 0.5% RADA16 (SEQ ID NO:1) mixed with 0.125, 0.25, and 0.5 M CaCl2) were prepared. The structure of the self-assembled peptide solutions were disrupted thoroughly by application of mechanical stress through vortexing and sonication. The mixtures were placed at room temperature for 48 hours to allow self-assembly to take place. […] FIG. 23A presents raw rheological data of the control peptide solution with salts and the perturbed peptide solution while FIG. 23B provides a comparison of stiffness of the control peptide solution and the perturbed peptide solution.

[3] = Gelation kinetics of 0.5% RADA16 treated with cations and anions; type: physicochemical
Protocol: Rheological measurements of gelation kinetics of 0.5% RADA16 (SEQ ID NO:1)+NaCl, KCl, and CaCl2) were evaluated. A solution of 0.5% RADA16 (SEQ ID NO:1) was prepared and gelation kinetics were observed by treatment with several cations (e.g., Nat, Ca^2+, K^+) and anions (e.g., Cl^−, CO3^2−, PO4^3−, SO4^2−). It was determined how long it will take for the peptide mixtures to gel and how to control that gelation time by varying the cation/anion type and concentration. […] In vivo and in vitro qualitative experiments and the resulting observations were supportive of these conclusions.

[4] = test system: Swine lungs; experiment: Lung volume reduction: injection of peptide hydrogel into bronchi of excised lungs; details: for filling of lumens of the lungs (histology): hydrogel with 0.00585% Indigo Carmine
Text: Swine lungs were obtained from freshly euthanized pigs. An endotracheal tube, connected to a syringe filled with a peptide hydrogel, was inserted through the trachea and primary bronchus into the lobe of interest. The tube was led through the bronchi to the end of the appropriate lobe and the distance was noted.
The self-assembling peptide hydrogels were comprised of Ac-RADARADARADARADA-NH2 (SEQ ID NO: 1) (i.e., RADA16) or Ac-IEIKIEIKIEIKI-NH2 (SEQ ID NO: 2) (i.e., IEIK13). RADA16 (SEQ ID NO:1) or IEIK13 (SEQ ID NO:2) was mixed with 0.00585% Indigo Carmine to observe spreading of the hydrogels throughout the lobes. When mixed, the peptides were reconstituted with […]. The peptides were reconstituted first in deionized water, and subsequently with 1% Indigo Carmine to provide a final concentration of 0.00585% of the contrast reagent.
Once the lobe of interest was identified, the endotracheal tube was fed to the end where the hydrogels were injected. After each injection of 1 ml of hydrogel the tube was retracted 2 cm and the injection was repeated. This procedure was repeated until a backflow of hydrogel was observed from the bronchi and the total volume of hydrogel injected was noted. The final injection ranged from 0.5-1.5 ml. After backflow of hydrogel was observed, the lobes were cut at 90 degrees to the midline for histological analysis. FIG. 25 illustrates the procedural flow of injecting peptide hydrogel into the bronchi of a single lobe of the lung and observation of penetration of the solution. Lumen penetration of 1% Indigo Carmine solution (left) was compared to 1.5% IEIK13 (SEQ ID NO:2)+0.00585% Indigo Carmine (right).
Tissue samples were fixed in paraformaldehyde and rinsed with ethanol. Histology was conducted at Beth Israel Deaconess Medical Center. […] FIG. 28A presents the IEIK13 (SEQ ID NO:2) gel observed within the major lumens. FIG. 28B presents the IEIK13 ((SEQ ID NO:2) gel observed within the minor lumens. Due to H&E processing, peptide gels break/fragment. Optical imaging has shown that these gels remain as bulk structures.

[5] = with pH adjustment, PuraMatrix 2.5%, IEIK13 1.5% solution

Row | Substance | gelation response to DMEM [1, 5] | enhancement of stiffness by Ca compared to Na or K ([2]; 0.5% RADA16, chloride salts at the same molar concentrations) | stiffness with added cation solution versus without ([2]; 2.5% RADA16 with addition of 0.125 M CaCl2) | storage modulus ([2]; about 0.5 w/v percent, calcium chloride about 0.125 M) | storage modulus ([2]; about 0.5 w/v percent, calcium chloride about 0.250 M) | storage modulus ([2]; about 0.5 w/v percent, calcium chloride about 0.500 M) | storage modulus ([2]; about 2.5 w/v percent, calcium chloride about 0.125 M) | gelation speed by anion ([3]; chloride) | gelation speed by anion ([3]; sulfate) | lung volume reduction, penetration into lung tissue, versus 1.5% IEIK13 ([4]; 1.0% with 0.00585% Indigo Carmine) | filling of lumens of the lungs (histology) [4] | gelation response to DMEM ([1]; without pH adjustment, 1.5% solution)
1 | Arg-Ala-Asp-Ala-Arg-Ala-Asp-Ala-Arg-Ala-Asp-Ala-Arg-Ala-Asp-Ala [PuraMatrix ®] | immediate storage modulus increase | best enhancement of stiffness | noticeable increase in stiffness | about 25 Pa | about 44 Pa | about 52 Pa | about 600 Pa | quickest gelation | slowest gelation | decidedly better | filled both major and minor lumens | 
2 | Ile-Glu-Ile-Lys-Ile-Glu-Ile-Lys-Ile-Glu-Ile-Lys-Ile [IEIK13] | immediate storage modulus increase |  |  |  |  |  |  |  |  |  | filled both major and minor lumens | immediate storage modulus increase
